Measurements as given in patent US20100303821A1 (GlaxoSmithKline, published 2010).

Experiments:
[1] = target: T1, cyno IL-13 (cynomolgus, UniProt Q0PW92 21-132); experiment: SPR Biacore T100; captured on Protein A (CM5), cyno IL13 analyte; 'Impossible off-rates', beyond sensitivity
T1 construct: also called cynomolgus IL-13
Method: (§1) All binding curves were double referenced with a OnM injection (i.e. buffer alone).
(§2) Regeneration of the Protein A surface was with 50 mM NaOH. The assay was run at 25° C. using HBS-EP as running buffer. The data was fitted to 1:1 model inherent to the Biacore T100 analysis software.

[2] = target: T2, human IL-13 (human, UniProt P35225 35-146); experiment: cell-based or functional assay
[3] = target: T2, human IL-13; experiment: cell-based or functional assay; remark: listed apart in the source
[4] = target: T3, human IL-4 (human, UniProt P05112 25-153); experiment: SPR Biacore T100; captured on Protein A (CM5), human IL4 analyte; footnote: on- and off-rate not measurable
T3 construct: also called recombinant E. coli-expressed human IL-4
T3 sequence (looked up): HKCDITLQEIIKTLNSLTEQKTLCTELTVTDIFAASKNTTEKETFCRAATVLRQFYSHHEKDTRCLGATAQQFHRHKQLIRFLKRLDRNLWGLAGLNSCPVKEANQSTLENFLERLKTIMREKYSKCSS

[5] = target: T3, human IL-4; experiment: SPR Biacore T100; mAbdAb captured on Protein A (CM5), human IL4 analyte
Method: as §1, §2

T2 sequence (P35225 other isoform, or with tags, fused parts or gaps limits assumed): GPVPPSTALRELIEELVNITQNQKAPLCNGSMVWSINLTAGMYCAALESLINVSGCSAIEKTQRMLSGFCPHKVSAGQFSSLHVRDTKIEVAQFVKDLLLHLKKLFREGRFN
T1 sequence (Q0PW92 entry or part of it): as the sequence (P35225 other isoform, or with tags, fused parts or gaps limits assumed) above, with G1S, R10K, M42V, S67N, H83R, L100V, R110Q counted along it

B1: BPC3214 (bispecific antibody, human IgG1, kappa)
heavy: not shown
light: DIQMTQSPSSLSASVGDRVTITCRSSQNIVHINGNTYLEWYQQKPGKAPKLLIYKISDRFSGVPSRFSGSGSGTDFTLTISSLQPEDFATYYCFQGSHVPWTFGQGTKLEIKRTVAAPSVFIFPPSDEQLKSGTASVVCLLNNFYPREAKVQWKVDNALQSGNSQESVTEQDSKDSTYSLSSTLTLSKADYEKHKVYACEVTHQGLSSPVTKSFNRGEC
Kd [1]: 0.0158 nM | koff [1]: 5.07e-06 s⁻¹

B2: A1L1 (antibody, human IgG1, kappa, V domains shown)
VH: QVQLVQSGAEVKKPGSSVKVSCKASGFYIKDTYMHWVRQAPGQGLEWMGTIDPANGNTKYVPKFQGRVTITADESTSTAYMELSSLRSEDTAVYYCARSIYDDYHYDDYYAMDYWGQGTLVTVSS
VL: DIVMTQSPLSLPVTPGEPASISCRSSQNIVHINGNTYLEWYLQKPGQSPRLLIYKISDRFSGVPDRFSGSGSGTDFTLKISRVEADDVGIYYCFQGSHVPWTFGQGTKLEIKR
Mean ND50, TF-1 cell proliferation bioassay [2]: 5.01 nM | ND50 human IL-13, TF-1 cell proliferation bioassay [3]: 2.52 nM

B3: BPC1086 (bispecific antibody, human IgG1, kappa)
heavy: not shown
light: DIVMTQSPLSLPVTPGEPASISCRSSQNIVHINGNTYLEWYLQKPGQSPRLLIYKISDRFSGVPDRFSGSGSGTDFTLKISRVEADDVGIYYCFQGSHVPWTFGQGTKLEIKRTVAAPSVFIFPPSDEQLKSGTASVVCLLNNFYPREAKVQWKVDNALQSGNSQESVTEQDSKDSTYSLSSTLTLSKADYEKHKVYACEVTHQGLSSPVTKSFNRGEC
Mean ND50, TF-1 cell proliferation bioassay [2]: 1.01 nM

B4: BPC1112 (bispecific antibody, human IgG1, kappa)
heavy: not shown
light: B3 light
notes: also called 829H-(TVAAPS)2GS-154 (89K)
kon [4]: 1.14e+08 M⁻¹ s⁻¹

B5: BPC1093 (bispecific antibody, human IgG1, kappa)
heavy: not shown
light: B3 light
notes: also called 829H-(TVAAPS)2GS-154 (89M)
Kd [5]: 0.055 nM | koff [5]: 0.000211 s⁻¹ | kon [5]: 3.84e+06 M⁻¹ s⁻¹
